Results as given in paper PMC10284691, “A tripartite rheostat controls self-regulated host plant resistance to insects” (Nature, 2023).

What was measured:
[1] = molecular target: T1, BISP(26–124) (purified from insect cells) (Nilaparvata lugens (brown planthopper)); assay: BLI; Octet RED96; biotinylated LRR or N14–LRR (20 μg/ml) on streptavidin biosensors, BISP, BISP(26–124) or BISP(125–241) in solution at different concentrations; PBS pH 7.4 with 0.05% Tween 20 and 0.5% BSA; 25 °C; association 180 s, dissociation 180 s; global fit; conditions: both partners purified
T1 construct: source: SF9 insect cells (baculovirus), purified (Ni-NTA, dialysed in PBS)

[2] = molecular target: T2, BISP (purified from insect cells) (Nilaparvata lugens (brown planthopper)); assay: as above; conditions: both partners purified
T2 construct: probably this one too; source: SF9 insect cells (baculovirus), purified (Ni-NTA, dialysed in PBS)

B1: BPH14–LRR (purified from insect cells) (domain or fragment)
chain: SGDRPEAIRTPSPEKGYPGIQTLICSRFKYLQNVSKYRSLRVLTTMWEGSFLIPKYHHHLRYLDLSESEIKALPEDISILYHLQTLNLSRCLSLRRLPKGMKYMTALRHLYTHGCWSLGSMPPDLGHLTCLQTLTCFVAGTCSGCSDLGELRQLDLGGRLELRKLENVTKADAKAANLGKKEKLTKLTLIWTDQEYKEAQSNNHKEVLEGLTPHEGLKVLSIYHCGSSTCPTWMNKLRDMVGLELNGCKNLEKLPPLWQLPALQVLCLEGLGSLNCLFNCDTHTPFTFCRLKELTLSDMTNFETWWDTNEVQGEELMFPEVEKLSIESCHRLTALPKASNAISESSGEVSTVCRSAFPALKEMKLYDLRIFQKWEAVDGTPREEATFPQLDKLEIRQCPELTTLPEAPKLSDLEISKGNQQISLQAASRHITSLSSLVLHLSTDDTETASVAKQQDSSDLVIEDEKWSHKSPLELMVLSRCNLLFSHPSALALWTCFAQLLDLKIRYVDALVSWPEEVFQGLVSLRKLEISVCENLTGHTQARGQSTPAPSELLPRLESLEITCCDSIVEVPNLPASLKLLEIRGCPGLESIVFNQQQDRTMLVSAESFAEQDKSSLISGSTSETNDHVLPRLESLVINWCDRLEVLHLPPSIKKLGIYSCEKLRSLSVKLDAVRELSIRHCGSLKSLESCLGELASLQQLKLFDCKSLESLPKGPQAYSSLTSLEIRGCSGIKVLPPSLQQRLDDIEDKELDACYEEAEAEPKSRHRQSAISRLMCLK
modifications: biotin (NHS-biotin) in the BLI assays; RED-NHS 2nd Generation dye in the MST assays
- Kd [1]: 127 nM
- Kd [2]: 32.1 nM
